Reference: patent US7105488B1, “G protein-coupled receptor antagonists” (priority 1998, dated 2006)
Where a SMILES comes first, the peptide text is derived from it. Where no end group is shown, it is not given here. rhodamine = not defined here; Rhod = not defined here

Columns and labels:
CXCR4 receptor [1] = target: CXCR4 receptor (Homo sapiens, UniProt P61073); assay: Inhibition of SDF-1α-induced intracellular calcium release (Fura-2/AM) in HeLa and U87 cells; format: cell-based; conditions: for Decrease in antagonist potency relative to F-2-2: structure-activity of TM2 peptides
Description: The effect of the peptides on CXCR4-mediated calcium fluxes in HeLa cells that naturally express the CXCR4 receptor and U87 cells stably expressing the CXCR4 receptor was tested as follows. Cells grown on Nunc cover glass chamber slides were incubated with 1 micromolar Fura-2/AM for 20 min in a CO2-incubator, rinsed with PBS and mounted on the stage of a Zeiss Axiovert inverted microscope. [Ca^2+]i measurements were performed using an Attofluor digital imaging system (Atto Instruments, Rockville, Md.). Fluorescence of Fura was excited at alternating wavelength of 340 and 380 nm. […] Calibrations of [Ca^2+]i signals were performed using Ca^2+ standards containing 1 micromolar Fura. CXCR4 antagonists were tested on HeLa cells and U87 cells. Stromal cell-derived factor-1α (SDF-1α) was used as a specific CXCR4 agonist. CCR5 antagonists, which were used in selectivity studies as described below, were tested on HEK (human kidney […]) cells stably expressing the CCR5 receptor and RANTES was used as an agonist. The antagonist activity of the peptides was evaluated by measuring the inhibition of agonist-evoked intracellular Ca^2+i release. These measurements were carried out in Fura-2/AM-treated cells, utilizing an Attofluor digital imaging system as described above. The agonist was SDF-1 α.

[2] = target: T1, rat cholecystokinin receptor type A (CCKAR) (rat, UniProt P30551 1-444); assay: inhibition of binding of fluorescent agonist RG-CCK-8 to CHO cells expressing rat CCKAR, quantitative confocal laser scanning microscopy
T1 construct: whole, on cells; also called cholecystokinin type A receptor
T1 sequence (looked up): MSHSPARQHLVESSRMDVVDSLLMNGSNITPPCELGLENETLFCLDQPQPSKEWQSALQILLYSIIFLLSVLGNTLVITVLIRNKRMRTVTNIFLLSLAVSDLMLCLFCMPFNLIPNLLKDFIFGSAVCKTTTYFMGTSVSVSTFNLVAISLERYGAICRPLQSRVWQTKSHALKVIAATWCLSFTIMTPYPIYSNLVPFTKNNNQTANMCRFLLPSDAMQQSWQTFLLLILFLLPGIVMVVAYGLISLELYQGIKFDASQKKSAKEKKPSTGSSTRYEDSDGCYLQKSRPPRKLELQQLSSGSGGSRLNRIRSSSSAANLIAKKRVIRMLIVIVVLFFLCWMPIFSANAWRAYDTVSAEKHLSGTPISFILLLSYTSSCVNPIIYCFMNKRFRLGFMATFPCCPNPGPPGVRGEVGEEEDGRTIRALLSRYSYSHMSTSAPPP
Description: None of CCKAR-derived peptides served as antagonists of chemokine receptors and none could inhibit HIV-1 infection. The activity of the antagonists in inhibiting signaling through the receptor was compared to the ability to prevent agonist binding (Table 4). Inhibition of signaling was assessed in CCK-8 evoked intracellular calcium release in FURA-2/AM treated CHO cells stably transfected with rat CCKAR (Tarasova, et al. (1997) *J. Biol. Chem.* 272:14817). Inhibition of ligand binding was measured with the use of a fluorescent agonist, rhodamine green CCK-8 (RG-CCK-8) and quantitative confocal laser scanning microscopy (Tarasova, et al. (1997) *J. Biol. Chem.* 272:14817). Peptides derived from the first, second, and sixth transmembrane domains inhibited CCK-induced signaling through the CCKAR receptor. […] A peptide derived from the sixth domain, CCKAR-6-1, was active in inhibition of signaling, but had very low activity in inhibition of RG-CCK-8 binding.

[3] = target: T1, rat cholecystokinin receptor type A …; assay: cell-based or functional assay
CXCR4 receptor [4] = target: T2, CXCR4 receptor (UniProt P61073 1-352, limits assumed); assay: cell-based or functional assay
CXCR4 receptor [5] = target: T2, CXCR4 receptor; assay: cell-based or functional assay; remark: listed apart in the source
CXCR4 receptor [6] = target: T2, CXCR4 receptor; assay: cell-based or functional assay; remark: listed apart in the source
CXCR4 receptor [7] = target: T2, CXCR4 receptor; assay: cell-based or functional assay; remark: listed apart in the source

Chain of CXCR4 receptor (Homo sapiens, UniProt P61073) (P61073 whole entry): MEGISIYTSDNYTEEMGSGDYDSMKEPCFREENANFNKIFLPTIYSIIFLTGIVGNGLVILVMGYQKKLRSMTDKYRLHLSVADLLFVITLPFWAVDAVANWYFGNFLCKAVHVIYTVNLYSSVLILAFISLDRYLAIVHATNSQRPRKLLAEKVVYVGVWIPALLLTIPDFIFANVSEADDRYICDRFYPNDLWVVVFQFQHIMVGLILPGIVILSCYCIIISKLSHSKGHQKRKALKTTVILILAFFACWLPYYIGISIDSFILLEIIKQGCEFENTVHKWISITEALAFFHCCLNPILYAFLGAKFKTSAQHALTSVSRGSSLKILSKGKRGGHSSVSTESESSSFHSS
T2 sequence (P61073 whole entry): as above

CC[C@H](C)[C@H](NC(=O)CNC(=O)[C@@H](NC(=O)[C@H](Cc1ccc(O)cc1)NC(=O)[C@H](Cc1ccc(O)cc1)NC(=O)[C@@H]1CCCN1C(=O)[C@H](CC(C)C)NC(=O)[C@H](Cc1c[nH]c2ccccc12)NC(=O)[C@H](CS)NC(=O)[C@H](C)NC(=O)[C@H](Cc1ccccc1)NC(=O)[C@H](Cc1ccccc1)NC(=O)[C@H](C)NC(=O)[C@H](CC(C)C)NC(=O)[C@@H](NC(=O)[C@H](CC(C)C)NC(=O)[C@@H](NC(=O)[C@@H](N)C(C)C)[C@@H](C)CC)[C@@H](C)CC)[C@@H](C)CC)C(=O)N[C@@H](CO)C(=O)N[C@H](C(=O)N[C@@H](CC(=O)O)C(=O)O)[C@@H](C)CC [Peptide F-6-1] (H-VILILAFFACWLPYYIGISID-OH; N-terminus and C-terminus assumed)
Concentration, required for inhibition of signal transduction (CXCR4 receptor [1]; SDF-1α-induced intracellular calcium release, Table 2): 10 µM

KAVHVIYTVNLYSSVLILAFISL-NH2 [Peptide F-3-1]
Concentration, required for complete inhibition of [Ca^2+I] release (CXCR4 receptor [1]; SDF-1α-induced, Table 1): >50 µM

AcLLFVITLPFWAVDAVANWYFGNDDK(Rhod)D (Ac-LLFVITLPFWAVDAVANWYFGNDDK(rhodamine)D; reading uncertain) [Rhod - AcF-2-2]
Concentration, required for complete inhibition of [Ca^2+I] release (CXCR4 receptor [1]; TM2-derived peptides, Table 3): 8 µM

VITLPFWAVDAVANWYFGNKK (F-2-4 GPCR CXCR4) [Peptide F-2-4]
Concentration, required for complete inhibition of [Ca^2+I] release (CXCR4 receptor [1]; TM2-derived peptides, Table 3): >50 µM | Decrease in antagonist potency relative to F-2-2 (CXCR4 receptor [1]): 20 fold

KVYVGVWIPALLLTLPDFIF (KVYVGVWIPALLLTIPDFIF; F-4-1 GPCR CXCR4) [Peptide F-4-1]
Antagonist activity on CXCR4 signaling, in words (CXCR4 receptor [1]): abolished the antagonist activity | Concentration, required for complete inhibition of [Ca^2+I] release (CXCR4 receptor [1]; SDF-1α-induced, Table 1): >50 µM

LLFVITLPFWAVDAVANDD (F-2-5 GPCR CXCR4) [Peptide F-2-5]
Concentration, required for complete inhibition of [Ca^2+I] release (CXCR4 receptor [1]; TM2-derived peptides, Table 3): 10 µM

DDIFLPTIYSIIFLTGIV-HN2 (DDIFLPTIYSIIFLTGIV-NH2) [Peptide F-1-5]
Concentration, required for complete inhibition of [Ca^2+I] release (CXCR4 receptor [1]; SDF-1α-induced, Table 1): >30 µM

LLFVITLPFWAVDAVANWYFGN (F-2-1 GPCR CXCR4) [Peptide F-2-1]
Concentration, required for complete inhibition of [Ca^2+I] release (CXCR4 receptor [1]; TM2-derived peptides, Table 3): 5 µM | Decrease in antagonist potency relative to F-2-2 (CXCR4 receptor [1]): more than ten-fold

LLFVITLPFWAVDAVANWYFGNKK (F-2-8 GPCR CXCR4) [Peptide F-2-8]
Concentration, required for complete inhibition of [Ca^2+I] release (CXCR4 receptor [1]; TM2-derived peptides, Table 3): 20 µM

B1: CCKAR-TM-6-4 (#77) (peptide)
peptide: IVVLFFLCWMPIFSANAWRAYDTVDD
IC50 [2]: > 50000 nM | Concentration, required for inhibition of signaling (CCK-8-induced intracellular calcium release) [3]: 5 µM

B2: F-2-2 (peptide)
peptide: LLFVITLPFWAVDAVANWYFGNDD
Concentration, required for complete inhibition of [Ca^2+I] release (CXCR4 receptor [4]): 0.2 µM | Concentration, required for inhibition of signal transduction (µM) (SDF-1α-induced intracellular calcium release) (CXCR4 receptor [5]): 0.2 µM | EC50 in anti-HIV-1 assay (µM) (cytoprotection, CEM-SS cells infected with HIV-1RF) (CXCR4 receptor [5]): 2.27 µM

B3: CCKAR-TM-4-2 (#71) (peptide)
peptide: VIAATWCLSFTIMTPYPIYSNLVPFTDD
Concentration, required for inhibition of signaling (CCK-8-induced intracellular calcium release) [3]: > 50 µM

B4: AcF-2-5 (peptide)
peptide: Ac-LLFVITLPFWAVDAVANDD
Concentration, required for complete inhibition of [Ca^2+I] release (CXCR4 receptor [4]): 10 µM

B5: F-6-1 (peptide)
peptide: VILILAFFACWLPYYIGISID
Concentration, required for complete inhibition of [Ca^2+I] release (SDF-1α-induced) (CXCR4 receptor [6]): 10 µM | Concentration, required for inhibition of signal transduction (µM) (SDF-1α-induced intracellular calcium release) (CXCR4 receptor [5]): 10 µM | EC50 in anti-HIV-1 assay (µM) (cytoprotection, CEM-SS cells infected with HIV-1RF) (CXCR4 receptor [5]): > 50 µM

B6: F-2-5 (peptide)
peptide: LLFVITLPFWAVDAVANDD
potency relative to F-2-2 (CXCR4 receptor [7]): 20 fold | Concentration, required for complete inhibition of [Ca^2+I] release (CXCR4 receptor [4]): 10 µM

B7: F-2-8 (peptide)
peptide: LLFVITLPFWAVDAVANWYFGNKK
antagonist activity relative to F-2-2 (CXCR4 receptor [7]): 100 fold | Concentration, required for complete inhibition of [Ca^2+I] release (CXCR4 receptor [4]): 20 µM

B8: CCKAR-TM-2-1 (peptide)
peptide: FLLSLAVSDLMLCLFCMPFNLP
notes: also called CCKAR-2-1; CCKAR-TN-2-1
IC50 [2]: 500 nM | Concentration, required for inhibition of signaling (CCK-8-induced intracellular calcium release) [3]: 2 µM

B9: CCKAR-TM-1-6 (peptide)
peptide: DDEWQSALQILLYSIIFLLSVLGNTLVITV
notes: Synthetic peptide from the first transmembrane domain of rat CCKAR
IC50 [2]: 20000 nM | Concentration, required for inhibition of signaling (CCK-8-induced intracellular calcium release) [3]: 50 µM

B10: CCKAR-TM-5-3 (#45) (peptide)
peptide: DDQTFLLLILFLLPGIVMVVAYGL
Concentration, required for inhibition of signaling (CCK-8-induced intracellular calcium release) [3]: > 50 µM

B11: F-4-1 (peptide)
peptide: KVYVGVWIPALLLTIPDFIF
Concentration, required for complete inhibition of [Ca^2+I] release (SDF-1α-induced) (CXCR4 receptor [6]): > 50 µM

B12: F-7-1 (peptide)
peptide: ALAFFHCCLNPILYAFLGAK-NH2
modifications: cysteine pairing not given here
Concentration, required for complete inhibition of [Ca^2+I] release (SDF-1α-induced) (CXCR4 receptor [6]): > 100 µM

B13: F-2-1 (peptide)
peptide: LLFVITLPFWAVDAVANWYFGN
antagonist potency relative to F-2-2 (CXCR4 receptor [7]): > 10 fold | Concentration, required for complete inhibition of [Ca^2+I] release (SDF-1α-induced) (CXCR4 receptor [6]): 5 µM | Concentration, required for complete inhibition of [Ca^2+I] release (CXCR4 receptor [4]): 5 µM

B14: Rhod - AcF-2-2 (peptide)
peptide: Ac-LLFVITLPFWAVDAVANWYFGNDDK(Rhod)D
modifications: reading uncertain
Concentration, required for complete inhibition of [Ca^2+I] release (CXCR4 receptor [4]): 8 µM

B15: F-2-6 (peptide)
peptide: LSVADLLFVITLPFWAVDAVANDD
Concentration, required for complete inhibition of [Ca^2+I] release (CXCR4 receptor [4]): 20 µM

B16: F-4-2 (peptide)
peptide: VYVGVWIPALLLTIPDFIFANDD
Concentration, required for inhibition of signal transduction (µM) (SDF-1α-induced intracellular calcium release) (CXCR4 receptor [5]): 5 µM | EC50 in anti-HIV-1 assay (µM) (cytoprotection, CEM-SS cells infected with HIV-1RF) (CXCR4 receptor [5]): 0.3 µM

B17: F-5-1 (peptide)
peptide: HIMVGLILPGIVILSCYCIII-NH2
modifications: cysteine pairing not given here
Concentration, required for complete inhibition of [Ca^2+I] release (SDF-1α-induced) (CXCR4 receptor [6]): > 50 µM

B18: F-2-4 (peptide)
peptide: VITLPFWAVDAVANWYFGNKK
Concentration, required for complete inhibition of [Ca^2+I] release (CXCR4 receptor [4]): > 50 µM
